The source of these data is paper PMC5378893 (Scientific Reports, 2015).

Residue numbers refer to the chain shown, from its start. Numbers in names are those of the source.

The chains are these.
B1: M64 IgG (mouse anti-HER2/ECD) (antibody, V domains shown)
VH: EVQLQQSGAELVKPGASVKLSCTASGFNIKNTYMHWVKQRPEQGLEWIGRIDPANGNTKYDPKLQGKATITADTSSNTAYLHLSSLTSEDTAVYYCVPYYRGAMDYWGQGTSVTVSS
VL: DIQMNQSHKFMSTSVGDRVSITCKASQDVSTAVAWYQQKPGQSPKLLIYWASTRHTGVPGRFTGSGSGADYTLTISSVQAEDLALYYCQQHYSTPYTFGGGTKLEIK
notes: mouse VL; L49~L53 YWAST; L91~L96 HYSTPY; mouse VH; H50~H58 RIDPANGNTK; H96~H100B YRGAM; recombinant IgG from a scFv of an immunized mouse's phage library; source: HEK293-F, transient transfection, purified (Protein A, Superdex 200)
B2: GH2-95 IgG (antibody, V domains shown)
VH: EVQLVESGGGLVQPGGSLRLSCAASGFTIDSWGIHWVRQAPGKGLEWVAGIGPFWGYTSYADSVKGRFTISADTSKNTAYLQMNSLRAEDTAVYYCARFGIHFDGIMDYWGQGTLVTVSS
VL: DIQMTQSPSSLSASVGDRVTITCRASQDVSGGVAWYQQKPGKAPKLLIFGSTWLYSGVPLRFSGSGSGTDFTLTISSLQPEDFATYYCQQYYDWPLTFGQGTKVEIK
notes: source: HEK293-F, transient transfection, purified (Protein A, Superdex 200)
B3: GH2-104 IgG (antibody, V domains shown)
VH: B2 VH with W55G, I101D, H102Y, F103I, I106V
VL: B2 VL with S30N, G31S, G32N, F49Y, T52P, W53S, L60S
notes: as for B2
B4: GH2-98 IgG (antibody, V domains shown)
VH: B2 VH with D30N, S31N, W32Y, F54S, Y57F, S59Y, I101F, H102Y, F103N, I106F
VL: B2 VL with S30G, G31S, F49Y, G50F, T52A, W53S, L60S, D93N
notes: as for B2
B5: M62 IgG (mouse anti-HER2/ECD) (antibody, V domains shown)
VH: EVQLQQSGTELARPGASVKLSCKASGYTFIDYYITWVKQRTGQGLEWIGEIYPGGGNPYYNDNFKGKASLTADKSSNTVYMQLSSLTSEDSAVYFCARSYKYDVSVYWGQGTLVTVSA
VL: DIQMIQSQKFMSTSVGDRVSVTCKASQNVGTNVAWYQQKPGQSPKALIHSASYRYSGVPDRFTGSGSGTDFTLTISNVQSEDLAEYFCQQYNSYPLTFGAGTKLEIK
notes: mouse VL; L49~L53 HSASY; L91~L96 YNSYPL; mouse VH; H50~H58 EIYPGGGNPY; H96~H100B YKYDVS; recombinant IgG from a scFv of an immunized mouse's phage library; source: HEK293-F, transient transfection, purified (Protein A, Superdex 200)
B6: GH2-3 IgG (antibody, V domains shown)
VH: EVQLVESGGGLVQPGGSLRLSCAASGFTISGGWIHWVRQAPGKGLEWVAGIWPSGGSTSYADSVKGRFTISADTSKNTAYLQMNSLRAEDTAVYYCARFYFGFGDLMDYWGQGTLVTVSS
VL: DIQMTQSPSSLSASVGDRVTITCRASQDVNNNVAWYQQKPGKAPKLLIYGARYLYSGVPSRFSGSGSGTDFTLTISSLQPEDFATYYCQQFGGGPLTFGQGTKVEIK
notes: as for B2
B7: GH2-16 IgG (antibody, V domains shown)
VH: EVQLVESGGGLVQPGGSLRLSCAASGFTINNWGIHWVRQAPGKGLEWVAGIWPFGGYTYYADSVKGRFTISADTSKNTAYLQMNSLRAEDTAVYYCARFDYLNNGGMDYWGQGTLVTVSS
VL: B6 VL with N30Y, N31S, N32S, Y49S, G50Y, A51T, R52S, F91Y, G92Y, L96M
notes: as for B2
B8: GH2-8 IgG (antibody, V domains shown)
VH: GVQLVESGGGLVQPGGSLRLSCAASGFTIGSSGIHWVRQAPGKGLEWVAGIWPYWGSTYYADSVKGRFTISADTSKNTAYLQMNSLRAEDTAVYYCARFGVGYHYYMDYWGQGTLVTVSS
VL: DIQMTQSPSSLSASVGDRVTITCRASQDVGWWVAWYQQKPGKAPKLLISGATGLYSGVPSRFSGSGSGTDFTLTISSLQPEDFATYYCQQSWDSPITFGQGTKVEIK
notes: as for B2
B9: GH2-18 IgG (antibody, V domains shown)
VH: B7 VH with N30S, F54Y, Y59F, D100N, N104L
VL: B6 VL with N31S, G50W, A51T, R52T, Y53G, F91Y, G92L, G93S, L96I
notes: as for B2
B10: GH2-13 IgG (antibody, V domains shown)
VH: EVQLVESGGGLVQPGGSLRLSCAASGFTISDGGIHWVRQAPGKGLEWVAGIWPYWGYTSYADSVKGRFTISADTSKNTAYLQMNSLRAEDTAVYYCARFDNNWVGNMDYWGQGTLVTVSS
VL: B8 VL with G30Y, W31F, W32G, A51T, G53S, S91Y, W92G, D93S, S94Y
notes: as for B2
B11: GH2-96 IgG (antibody, V domains shown)
VH: B2 VH with D30S, S31G, W32Y, S59F, I101H, H102I, F103V, I106L
VL: B2 VL with S30N, F49Y, T52S, L60S, Y92F, L96I
notes: as for B2
B12: GH2-14 IgG (antibody, V domains shown)
VH: B7 VH with N31D, W32H, W52G, Y59S, D100N, Y101F, L102N, N103D, N104V
VL: B8 VL with W31G, W32G, A51P, T52P, G53Y, S91Y, W92F, D93N, S94Y
notes: as for B2
B13: GH2-102 IgG (antibody, V domains shown)
VH: B2 VH with D30N, S31G, W32G, G50S, F54Y, W55G, E89G, I101H, F103Y, I106H
VL: B6 VL with N30G, N31S, R52P, F91Y, G92Y, G93N, G94W
notes: as for B2
B14: M41 IgG (mouse anti-HER2/ECD) (antibody, V domains shown)
VH: EVQLQQSGAELVKPGASVKMSCKAFGYTFTTYPIEWMKQNHGKSLEWIGNFHPYNDYTNYNEKFKGKAKLTVEKSSTTVYLELSRLTSDDSAVYYCARRHDGYYGAMDYWGQGTSVTVSS
VL: DIQMTQTTSSLSASLGDRVTISCRTSQDISNYLNWYQQKPNGTIKLLIYYTSGLYSGVPSRFSGSGSGADYSLTISNVEQEDIATYFCQQVNTLPYTFGGGTKLELK
notes: mouse VL; L49~L53 YYTSG; L91~L96 VNTLPY; mouse VH; H50~H58 NFHPYNDYTN; H96~H100B HDGYYGA; recombinant IgG from a scFv of an immunized mouse's phage library; source: HEK293-F, transient transfection, purified (Protein A, Superdex 200)
B15: M61 IgG (mouse anti-HER2/ECD) (antibody, V domains shown)
VH: B14 VH with Y57D, N59K, T77S, H100N
VL: DIKITQSPASLSASVGETVTITCRASENIYSYLAWYQQKQGKSPQLLVYNAKTLAEGVPSRFSGSGSGTQFSLKINSLQPEDFGSYYCQHHYGTPYTFGGGTKLELK
notes: mouse VL; L49~L53 YNAKT; L91~L96 HYGTPY; mouse VH; H50~H58 NFHPYNDDTK; H96~H100B NDGYYGA; recombinant IgG from a scFv of an immunized mouse's phage library; source: HEK293-F, transient transfection, purified (Protein A, Superdex 200)
B16: M32 IgG (mouse anti-HER2/ECD) (antibody, V domains shown)
VH: EVQLVESGAELVRPGALVKLSCKASGFNIKDYFMYWVKQRPEQGLEWVGWIDPENGNTIYDPKFQGKASITADTSSNTAYLQLSSLTSEDTAVYYCTRGYYGSRVLAMDYWGQGTSVTVSS
VL: GIELTQSQKFMSTSVGDRVSITCKASQNVGTAVAWYQQKPGQSPKLLIYSASNRYTGVPDRFTGSGSGTDFTLTISNMQSEDLADYFCQQYSSYPLAFGGGTKLEIK
notes: mouse VL; L49~L53 YSASN; L91~L96 YSSYPL; mouse VH; H50~H58 WIDPENGNTI; H96~H100B YYGSRVL; recombinant IgG from a scFv of an immunized mouse's phage library; source: HEK293-F, transient transfection, purified (Protein A, Superdex 200)

The target in the assay is T1, extracellular domain (ECD) of human epidermal growth factor receptor 2 (HER2) (Homo sapiens, UniProt P04626).
T1 construct: human epidermal growth factor receptor 2 (HER2), extracellular domain; also called HER2/ECD
In words: SPR; BIAcore T200; HER2/ECD immobilised on a CM5 chip by amine coupling to 1000 RU; IgG flowed in PBST (0.05% Tween 20) at 30 uL/min; regeneration 10 mM glycine pH 1.5; global fit to a 1:1 binding model. The note with it: both partners purified. A general note: Surface plasmon resonance follows binding to a sensor surface in real time, without labels.
With B1, binding was characterised by a dissociation constant (Kd) of 0.195 nM, the koff was 0.000337 s⁻¹ and the kon was 1.74e+06 M⁻¹ s⁻¹.
B2 came in with a Kd of 4.47 nM, a koff of 0.000244 s⁻¹ and a kon of 54700 M⁻¹ s⁻¹.
Taken in the same sequence, the figures for B3 were 1.04 nM, 0.000884 s⁻¹ and 852000 M⁻¹ s⁻¹.
In the same order, the values of B4 are 88.5 nM, 0.0224 s⁻¹ and 254000 M⁻¹ s⁻¹.
For B5, the Kd was 0.0228 nM, the koff is 1.8e-05 s⁻¹ and the kon came out at 788000 M⁻¹ s⁻¹.
In the same order, the values of B6 are 2.07 nM, 0.000502 s⁻¹ and 242000 M⁻¹ s⁻¹.
Molecule B7 registered an equilibrium dissociation constant (Kd) of 1.2 nM, a koff of 0.000102 s⁻¹ and a kon of 85700 M⁻¹ s⁻¹.
Taken in the same sequence, the figures for B8 were 0.259 nM, 0.000155 s⁻¹ and 599000 M⁻¹ s⁻¹.
In the same order, the values of B9 are 0.0695 nM, 1.09e-05 s⁻¹ and 156000 M⁻¹ s⁻¹.
In the same order, the values of B10 are 2.64 nM, 0.00818 s⁻¹ and 3.1e+06 M⁻¹ s⁻¹.
Take B11: binding was characterised by a dissociation constant (Kd) of 5.42 nM, the koff amounted to 0.00137 s⁻¹ and the kon was 254000 M⁻¹ s⁻¹.
The molecule B12 displayed a Kd of 17 nM, a koff of 0.00573 s⁻¹ and a kon of 336000 M⁻¹ s⁻¹.
In the same order, the values of B13 are 28.4 nM, 0.039 s⁻¹ and 1.37e+06 M⁻¹ s⁻¹.
In the same order, the values of B14 are 0.0519 nM, 3.48e-05 s⁻¹ and 671000 M⁻¹ s⁻¹.
In the same order, the values of B15 are 0.591 nM, 0.0024 s⁻¹ and 4.06e+06 M⁻¹ s⁻¹.
Molecule B16 displayed a Kd of 0.243 nM, a koff of 7.15e-05 s⁻¹ and an on-rate (kon) of 294000 M⁻¹ s⁻¹.

One may read the Kd as the concentration at which binding is half-saturated. A high value points to a looser complex. The term koff denotes a measure of how fast the partners let go of each other. Usually kon stands for the rate constant with which the complex forms.
